Experimental data published in US20260049151A1 (SHENGHE CHINA BIOPHARMACEUTICAL, published 2026).
Read-outs that look alike come from different tables or passages of the source.

T1: Human-TNFR2-His (human, UniProt P20333 23-257)
T1 construct: Bought protein; also called human TNFR2 protein; TNFR2 protein; not shown: His tag
T1 sequence (looked up): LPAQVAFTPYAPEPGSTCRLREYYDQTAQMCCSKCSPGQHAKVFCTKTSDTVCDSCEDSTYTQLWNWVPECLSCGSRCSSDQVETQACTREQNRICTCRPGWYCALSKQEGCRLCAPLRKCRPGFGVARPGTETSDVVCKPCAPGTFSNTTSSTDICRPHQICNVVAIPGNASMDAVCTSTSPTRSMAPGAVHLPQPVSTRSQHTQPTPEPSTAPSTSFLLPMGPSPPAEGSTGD

T2: Human TNFR2 mFc (human, UniProt P20333 23-257)
T2 construct: Bought protein; not shown: mFc
T2 sequence (looked up): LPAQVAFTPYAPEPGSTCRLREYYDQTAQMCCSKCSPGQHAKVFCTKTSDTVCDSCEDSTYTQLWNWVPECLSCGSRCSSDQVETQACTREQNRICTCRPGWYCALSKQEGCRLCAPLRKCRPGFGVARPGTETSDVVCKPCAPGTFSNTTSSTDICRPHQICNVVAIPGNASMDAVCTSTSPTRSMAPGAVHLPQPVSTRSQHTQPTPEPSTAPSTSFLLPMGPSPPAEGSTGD


Key:
[1] = biological target: T1, Human-TNFR2-His; experiment: ELISA: Human-TNFR2-His coated (0.1 ug/mL), antibody titrated, goat anti-human IgG Fc detection (Example 2)
Experimental: (§1) Human-TNFR2-His (manufacturer: SINO, CAT: 10417-H08H, LOT: LC15NO0412) was diluted to 0.1 μg/mL with a coating solution (1×PBS, pH7.4), and coated in 96-well ELISA plate at 100 µL/well overnight at 4° C. The coating solution was poured off. Each well was washed with 1×PBST at 300 μL, washed 4 times with a plate washer, and patted dry on a flat paper. It was blocked with 3% skim milk powder at 300 μL/well, and incubated at 37° C. for 1 h. The blocking solution was poured off, washed 4 times with a plate washer, and patted dry on a flat paper. Negative control and positive control were set up. […] The positive control and antibody were diluted to 10 μg/mL with 3% skim milk powder as the starting concentration, and then diluted by 3-fold gradient (11 gradients in total), and a blank well was set up and only the diluent was added. It was incubated at 37° C. for 1 h at 100 μL/well. The liquid in the well was discarded, washed 4 times with a plate washer, and patted dry on a flat paper. Goat anti-human IgG Fc was diluted with 3% skim milk powder at 1:10000, and incubated at 37° C. for 1 h at 100 μL/well. It was washed 6 times with a plate washer, and patted dry on a flat paper. TMB color developing solution was added at 100 μL/well, and wrapped with aluminum foil. Color development was performed at 37° C. in the dark for 8 min. Termination solution 1M HCl was added to terminate the color development reaction at 100 μL/well. Readings were taken at 450 nm on an ELISA reader.

[2] = biological target: T3, Human 4-1BB His (human, UniProt Q07011 24-186); experiment: ELISA: Human 4-1BB His coated (0.2 ug/mL), antibody titrated, goat anti-human IgG Fc detection (Example 3)
T3 construct: Bought protein; lots 198-2146F1-W6 and 2407c-214FF1-YC; also called human 4-1BB protein; 4-1BB protein; not shown: His tag
T3 sequence (Q07011 24-186 limits assumed): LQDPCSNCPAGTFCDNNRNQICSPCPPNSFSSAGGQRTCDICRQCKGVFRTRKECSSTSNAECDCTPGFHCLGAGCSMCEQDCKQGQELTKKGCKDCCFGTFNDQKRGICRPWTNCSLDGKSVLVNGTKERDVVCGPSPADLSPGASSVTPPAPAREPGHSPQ
Experimental: (§2) Human 4-1BB His (manufacturer: Acro, CAT: 41B-H5258, LOT: 198-2146F1-W6) was diluted to 0.2 μg/mL with a coating solution (1×PBS, pH7.4), and coated in 96-well ELISA plate at 100 μL/well overnight at 4° C. The coating solution was poured off. Each well was washed with 1×PBST at 300 μL, washed 4 times with a plate washer, and patted dry on a flat paper. It was blocked with 3% skim milk powder at 300 μL/well, and incubated at 37° C. for 1 h. The blocking solution was poured off, washed 4 times with a plate washer, and patted dry on a flat paper. Negative control and positive control were set up. […] The variable region of the antibody sequence of the positive control consists of SEQ ID NO: 15 and SEQ ID NO: 19, with the addition of the constant region of human IgG1 (SEQ ID NO: 46 and SEQ ID NO: 47). The positive control and antibody were diluted to 10 μg/mL with 3% skim milk powder as the starting concentration, and then diluted by 3-fold gradient (11 gradients in total), and a blank well was set up and only the diluent was added. It was incubated at 37° C. for 1 h at 100 μL/well. The liquid in the well was discarded, washed 4 times with a plate washer, and patted dry on a flat paper. Goat anti-human IgG Fc was diluted with 3% skim milk powder at 1:20000, and incubated at 37° C. for 1 h at 100 μL/well. It was washed 6 times with a plate washer, and patted dry on a flat paper. TMB color developing solution was added at 100 μL/well, and wrapped with aluminum foil. Color development was performed at 37° C. in the dark for 8 min. Termination solution 1M HCl was added to terminate the color development reaction at 100 μL/well. Readings were taken at 450 nm on an ELISA reader.

[3] = biological target: T4, Human 4-1BB Fc (human, UniProt Q07011 24-186); experiment: bridging ELISA: Human 4-1BB Fc coated (0.3 ug/mL), antibody titrated, then Human-TNFR2-His (0.3 ug/mL), HRP anti-His detection (Example 4)
T4 construct: same catalogue and lot number as Human 4-1BB His; not shown: Fc
T4 sequence (Q07011 24-186 limits assumed): as above
Experimental: Human 4-1BB Fc (manufacturer: Acro, CAT: 41B-H5258, LOT: 198-2146F1-W6) was diluted to 0.3 μg/mL with a coating solution (1×PBS, pH7.4) and coated into a 96-well ELISA plate at 100 µL/well at 4° C. overnight. The coating solution was poured off. Each well was washed with 1×PBST at 300 μL, washed 4 times with a plate washer, and patted dry on a flat sheet. It was blocked with 3% skim milk powder at 300 μL/well, and incubated at 37° C. for 1 h. The blocking solution was poured off, washed 4 times with a plate washer, and patted dry on a flat sheet. […] Starting at 50 nM, which was used as the initial concentration for 3-fold dilution, a total of 10 gradients were diluted, and a blank well was set up and only the diluent was added. It was incubated at 37° C. for 1 h at 100 μL/well. The liquid in the well was discarded, washed 4 times with a plate washer, and patted dry on a flat paper. Human-TNFR2-His (manufacturer: Sino, CAT: 10417-H08H, LOT: LC15NO0412) was diluted to 0.3 μg/mL, 100 μL was added to each well, and incubated at room temperature for 1 h. The plate was washed 3 times with PBST, and then the HRP-labeled his antibody was diluted with sample diluent at 1:5000, 100 μ L was added to each well, and incubated at room temperature for 1 h. It was washed 6 times with a plate washer, and patted dry on a flat paper. TMB color developing solution was added at 100 μL/well, and wrapped with aluminum foil. Color development was performed at 37° C. in the dark for 8 min. Termination solution 1M HCl was added to terminate the color development reaction at 100 μL/well. Readings were taken at 450 nm on an ELISA reader.

[4] = biological target: T2, Human TNFR2 mFc; experiment: bridging ELISA: Human TNFR2 mFc coated (0.3 ug/mL), antibody titrated, then Human 4-1BB His (0.3 ug/mL), HRP anti-His detection (Example 5)
Experimental: Human TNFR2 mFc (manufacturer: Kaixia, CAT: TN-HM3R2, LOT: 031202) was diluted to 0.3 μg/mL with a coating solution (1×PBS, pH7.4) and coated into a 96-well ELISA plate at 100 μL/well at 4° C. overnight. The coating solution was poured off. Each well was washed with 1×PBST at 300 μL, washed 4 times with a plate washer, and patted dry on a flat paper. It was blocked with 3% skim milk powder at 300 μL/well, and incubated at 37° C. for 1 h. The blocking solution was poured off, washed 4 times with a plate washer, and patted dry on a flat paper. […] Starting at 50 nM, which was used as the initial concentration for 3-fold dilution, a total of 10 gradients were diluted, and a blank well was set up and only the diluent was added. It was incubated at 37° C. for 1 h at 100 µL/well. The liquid in the well was discarded, washed 4 times with a plate washer, and patted dry on a flat paper. Human 4-1BB His (manufacturer: Acro, CAT: 41B-H5258, LOT: 198-2146F1-W6) was diluted to 0.3 μg/mL, 100 μL was added to each well, and incubated at room temperature for 1 h. The plate was washed 3 times with PBST, and then the HRP-labeled his antibody was diluted with sample diluent at 1:5000, 100 μ L was added to each well, and incubated at room temperature for 1 h. It was washed 6 times with a plate washer, and patted dry on a flat paper. TMB color developing solution was added at 100 μL/well, and wrapped with aluminum foil. Color development was performed at 37° C. in the dark for 8 min. Termination solution 1M HCl was added to terminate the color development reaction at 100 μL/well. Readings were taken at 450 nm on an ELISA reader.

[5] = biological target: T1, Human-TNFR2-His; experiment: ELISA: Human-TNFR2-His coated (0.1 ug/mL), antibody titrated, goat anti-human IgG Fc detection (Example 2); remark: listed apart in the source
Experimental: as §1

[6] = biological target: T3, Human 4-1BB His; experiment: ELISA: Human 4-1BB His coated (0.2 ug/mL), antibody titrated, goat anti-human IgG Fc detection (Example 3); remark: listed apart in the source
Experimental: as §2

EC50 (read off the curve) [1]	EC50 (read off the curve) [2]	EC50 (read off the curve) [3]	EC50 (read off the curve) [4]	EC50 (read off the curve) [5]	EC50 (read off the curve) [6]	Binder
~0.06 nM	~0.1 nM	~0.5 nM	~0.2 nM	–	–	Antibody C (bispecific antibody, human IgG1, kappa, IgG1 subtype; full-length 4-1BB antibody with TNFR2 scFv at the N-terminus of the heavy chains) light: DIQMTQSPSSLSASLGDRVTISCSASQGISNYLNWYQQKPDGTVKLLIYYTSTLHSGVPSRFSGSGSGTDYTLTISSLQPEDIATYYCQQYSKLPWTFGGGTKLEIKRTVAAPSVFIFPPSDEQLKSGTASVVCLLNNFYPREAKVQWKVDNALQSGNSQESVTEQDSKDSTYSLSSTLTLSKADYEKHKVYACEVTHQGLSSPVTKSFNRGEC heavy: not shown
–	–	–	–	~0.1 nM	–	Antibody M2 (bispecific antibody, human IgG4 S228P, kappa, IgG4 subtype; same order as M1) light: DIQMTQSPSSLSASLGDRVTISCSASQGISNYLNWYQQKPDGTVKLLIYYTSTLHSGVPSRFSGSGSGTDYTLTISSLQPEDIATYYCQQYSKLPWTFGGGTKLEIKRTVAAPSVFIFPPSDEQLKSGTASVVCLLNNFYPREAKVQWKVDNALQSGNSQESVTEQDSKDSTYSLSSTLTLSKADYEKHKVYACEVTHQGLSSPVTKSFNRGEC heavy: not shown
–	–	–	–	~0.2 nM	~0.2 nM	Antibody J2 (bispecific antibody, human IgG4 S228P, kappa, IgG4 subtype; same order as J1) light: DIQMTQSPSSLSASLGDRVTISCSASQGISNYLNWYQQKPDGTVKLLIYYTSTLHSGVPSRFSGSGSGTDYTLTISSLQPEDIATYYCQQYSKLPWTFGGGTKLEIKRTVAAPSVFIFPPSDEQLKSGTASVVCLLNNFYPREAKVQWKVDNALQSGNSQESVTEQDSKDSTYSLSSTLTLSKADYEKHKVYACEVTHQGLSSPVTKSFNRGEC heavy: not shown
